A word on the Kd: it is a measure of binding affinity in units of concentration.

Ends that are not written are not given here.

Experimental findings from publication PMC4021855 (Nature chemical biology, 2013) are described below.

In assay [1] the target is human full-length KRS WT, His-tagged (human, UniProt Q15046 1-597). Description: AlphaScreen or HTRF. Background: Bead proximity is the source of the signal in Alpha formats.
For assay [2], the target named is human full-length KRS T52D, His-tagged (human, UniProt Q15046 1-597, T52D). Nature of the assay: AlphaScreen or HTRF.
human full-length KRS T52D, His-tagged, sequence (Q15046 whole entry T52D): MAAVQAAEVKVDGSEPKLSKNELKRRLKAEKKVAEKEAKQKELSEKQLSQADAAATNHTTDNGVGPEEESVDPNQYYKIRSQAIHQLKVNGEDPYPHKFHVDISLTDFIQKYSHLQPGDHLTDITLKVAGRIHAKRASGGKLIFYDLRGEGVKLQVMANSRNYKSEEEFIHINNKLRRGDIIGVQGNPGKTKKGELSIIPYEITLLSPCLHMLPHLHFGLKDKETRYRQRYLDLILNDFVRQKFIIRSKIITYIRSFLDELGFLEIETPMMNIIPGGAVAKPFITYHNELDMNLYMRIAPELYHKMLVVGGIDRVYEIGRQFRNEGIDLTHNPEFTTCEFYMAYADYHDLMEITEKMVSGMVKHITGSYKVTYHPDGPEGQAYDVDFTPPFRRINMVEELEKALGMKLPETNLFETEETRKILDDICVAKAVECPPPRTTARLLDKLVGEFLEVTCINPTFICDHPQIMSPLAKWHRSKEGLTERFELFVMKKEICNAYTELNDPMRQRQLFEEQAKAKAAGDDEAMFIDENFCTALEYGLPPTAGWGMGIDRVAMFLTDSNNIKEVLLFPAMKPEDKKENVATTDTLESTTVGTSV

human full-length KRS WT, His-tagged, sequence (Q15046 whole entry): as the sequence (Q15046 whole entry T52D) above, with D52T counted along it

With MPMYQVKPYHGGGAPLRVELPTCMYRLPNVHGRSYGPAPGAGHVQEES-{TRX} (domain or fragment, human, UniProt Q13155 1-48, looked up, also: biotin via EZ-Link-NHS-PEG12-Biotin, places not given here) [AIMP2_(1–48)-TRX-Biotin], the binding result in assay [1] is on record as “binds”. In addition, in assay [2], binding was put at a Kd of 333 nM.
